Experimental data as given in the supplement of paper PMC9876800.

Test system: peptide library, one residue held at a place counted from the S/T acceptor
Experiment: relative phosphorylation of the sub-library (ratio to the mean residue at this position); higher = residue favoured
Settings: human
Outline: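 Purified recombinant kinases, either human or orthologue constructs, were incubated in 384-well plates with biotinylated degenerate peptide sub-libraries. Each sub-library fixed one residue at one position around a central Ser/Thr. Peptides at 50 μM and 50 μM ATP spiked with γ-32P-ATP were used for 90 min under kinase-specific conditions, and spots on streptavidin membranes were phosphorimaged and quantified by densitometry. Relative sub-library phosphorylation is expressed as a ratio to the mean residue at that position.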

ACVR2A, construct: aa162-end, sequence (P27037 162-513, looked up): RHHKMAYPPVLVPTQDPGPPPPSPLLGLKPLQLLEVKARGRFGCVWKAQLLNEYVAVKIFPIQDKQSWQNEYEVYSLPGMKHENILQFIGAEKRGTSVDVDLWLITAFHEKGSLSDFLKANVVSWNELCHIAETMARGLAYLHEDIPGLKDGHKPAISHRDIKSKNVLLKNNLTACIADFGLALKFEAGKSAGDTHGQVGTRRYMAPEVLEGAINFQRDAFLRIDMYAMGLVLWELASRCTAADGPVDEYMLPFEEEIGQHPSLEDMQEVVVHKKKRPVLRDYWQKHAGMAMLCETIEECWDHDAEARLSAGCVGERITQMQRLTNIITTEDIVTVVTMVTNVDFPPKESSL
CDK6, construct: Full length, sequence (Q00534 whole entry, looked up): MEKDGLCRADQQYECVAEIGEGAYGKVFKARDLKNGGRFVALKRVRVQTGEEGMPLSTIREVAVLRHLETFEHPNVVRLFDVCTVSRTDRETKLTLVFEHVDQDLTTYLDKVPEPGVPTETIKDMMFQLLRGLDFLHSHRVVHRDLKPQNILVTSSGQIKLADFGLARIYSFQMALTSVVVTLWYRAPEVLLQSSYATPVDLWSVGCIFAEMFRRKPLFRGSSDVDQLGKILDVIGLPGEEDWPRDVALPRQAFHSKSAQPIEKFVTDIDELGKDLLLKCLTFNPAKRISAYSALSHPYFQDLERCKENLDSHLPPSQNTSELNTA
CAMK2G, construct: aa24-334, sequence (Q13555 24-334, looked up): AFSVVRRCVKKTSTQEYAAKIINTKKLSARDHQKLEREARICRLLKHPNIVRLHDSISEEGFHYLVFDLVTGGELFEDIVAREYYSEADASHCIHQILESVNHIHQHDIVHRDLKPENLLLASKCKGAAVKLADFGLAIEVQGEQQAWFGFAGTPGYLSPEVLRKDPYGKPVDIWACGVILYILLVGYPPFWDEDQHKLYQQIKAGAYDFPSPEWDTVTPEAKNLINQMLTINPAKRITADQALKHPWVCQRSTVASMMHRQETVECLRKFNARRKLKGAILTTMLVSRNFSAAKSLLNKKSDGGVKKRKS
BUB1, construct: Full length, sequence (O43683 whole entry, looked up): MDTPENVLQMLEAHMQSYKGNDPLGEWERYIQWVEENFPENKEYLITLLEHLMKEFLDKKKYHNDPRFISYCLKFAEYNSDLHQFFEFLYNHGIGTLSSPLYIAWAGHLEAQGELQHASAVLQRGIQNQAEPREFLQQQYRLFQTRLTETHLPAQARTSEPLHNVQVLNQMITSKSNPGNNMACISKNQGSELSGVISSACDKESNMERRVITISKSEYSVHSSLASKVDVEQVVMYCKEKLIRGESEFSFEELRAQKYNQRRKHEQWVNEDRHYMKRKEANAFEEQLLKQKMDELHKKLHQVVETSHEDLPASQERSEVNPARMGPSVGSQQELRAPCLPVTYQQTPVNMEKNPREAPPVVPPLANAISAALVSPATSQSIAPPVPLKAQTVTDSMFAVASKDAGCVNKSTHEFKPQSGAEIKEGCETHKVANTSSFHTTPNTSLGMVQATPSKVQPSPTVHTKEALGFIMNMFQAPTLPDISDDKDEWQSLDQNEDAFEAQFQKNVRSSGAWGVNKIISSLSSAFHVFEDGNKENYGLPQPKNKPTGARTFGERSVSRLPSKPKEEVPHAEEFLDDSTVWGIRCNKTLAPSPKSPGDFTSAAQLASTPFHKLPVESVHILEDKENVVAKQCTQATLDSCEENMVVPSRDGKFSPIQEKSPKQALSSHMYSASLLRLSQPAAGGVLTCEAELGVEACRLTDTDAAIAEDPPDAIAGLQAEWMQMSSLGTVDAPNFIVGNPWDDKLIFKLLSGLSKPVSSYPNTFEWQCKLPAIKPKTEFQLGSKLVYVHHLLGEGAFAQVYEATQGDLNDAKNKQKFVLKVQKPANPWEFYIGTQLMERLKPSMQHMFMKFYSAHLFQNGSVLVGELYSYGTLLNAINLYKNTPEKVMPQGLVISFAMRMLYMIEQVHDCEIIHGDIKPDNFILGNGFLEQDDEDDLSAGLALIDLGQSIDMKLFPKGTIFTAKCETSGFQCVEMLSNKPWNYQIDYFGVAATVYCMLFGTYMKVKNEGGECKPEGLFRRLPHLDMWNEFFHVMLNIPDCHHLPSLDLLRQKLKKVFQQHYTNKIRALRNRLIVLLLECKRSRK

ACVR2A, construct: aa162-end (from UniProt P27037)
relative phosphorylation
Settings	at +1	at +2	at +3	at +4	at -1	at -2	at -3	at -4	at -5
A fixed	0.647	1.12	0.899	0.847	0.822	0.53	0.912	0.943	0.992
D fixed	1.68	1.24	1.06	1.09	1.23	4.3	1.79	1.77	1.51
E fixed	3.21	1.03	1.48	1.09	1.29	5.23	2.05	1.48	1.34
F fixed	0.932	0.983	1.09	0.89	1.17	0.504	0.877	1.05	1.02
G fixed	0.575	1.36	1.01	0.924	0.57	0.5	1.11	0.933	0.818
H fixed	0.7	1.12	1	0.974	1.07	0.487	0.9	0.937	0.969
I fixed	1.18	0.915	0.942	0.957	0.804	0.454	0.855	0.895	1.06
K fixed	0.327	0.805	0.785	0.896	0.532	0.354	0.603	0.69	0.868
L fixed	0.873	0.674	1.04	0.87	1.27	0.431	0.814	0.884	1.01
M fixed	0.996	0.879	1	1.13	1.44	0.399	0.875	0.98	0.886
N fixed	0.638	0.863	0.891	0.946	0.816	0.676	0.854	0.852	0.911
P fixed	0.34	0.989	1.14	1.29	0.676	0.321	0.854	0.791	0.706
Q fixed	1.23	1	0.848	1.05	0.9	0.769	0.863	0.82	0.732
R fixed	0.416	0.935	0.658	0.835	0.577	0.504	0.783	0.777	0.808
V fixed	1.32	0.999	0.963	0.877	1.1	0.502	0.928	0.924	1.02
W fixed	0.961	0.983	1.08	1.36	1.39	0.54	1	1.28	1.37
Y fixed	0.971	1.11	1.11	0.985	1.33	0.498	0.935	0.996	0.982
pThr fixed	4.65	1.1	0.882	1.2	1.37	1.01	2.05	1.37	1.33
pTyr fixed	2.81	0.877	1.39	1	1.81	0.721	1.66	1.16	1.29

BUB1, construct: Full length (from UniProt O43683)
relative phosphorylation
Settings	at +1	at +2	at +3	at +4	at -1	at -2	at -3	at -4	at -5
A fixed	0.963	0.738	0.95	0.855	0.796	0.718	1.66	1.24	0.423
D fixed	0.375	0.267	0.416	0.455	0.321	0.411	0.232	0.61	0.245
E fixed	0.325	0.331	0.379	0.424	0.289	0.284	0.347	0.865	0.246
F fixed	0.541	1.13	0.784	0.78	0.855	0.411	0.389	0.739	0.486
G fixed	1.34	1.09	1.09	1.31	0.502	0.418	0.918	1.06	0.377
H fixed	0.807	1.22	0.969	1.04	0.902	0.597	0.591	0.882	0.393
I fixed	0.594	0.761	0.565	1	0.551	1.8	0.839	0.556	1.12
K fixed	3.21	2.02	1.22	1.93	2.21	3.31	1.2	1.66	0.472
L fixed	0.552	0.851	0.543	0.849	1.43	1.13	0.526	1.16	4.97
M fixed	0.759	0.986	0.777	0.96	1.32	0.851	0.656	1.13	1.3
N fixed	0.662	0.583	0.711	1.07	0.566	0.584	0.616	0.558	0.388
P fixed	0.367	2.16	4.04	0.962	1.33	0.721	3.77	1.5	1.53
Q fixed	0.972	0.747	0.767	1.01	0.77	0.868	1.24	1.07	0.905
R fixed	3.99	2.14	1.41	1.8	2.76	2.32	2.38	1.64	1.31
V fixed	0.611	0.777	0.631	0.78	0.435	1.65	0.791	0.676	0.543
W fixed	0.497	0.491	0.936	0.949	0.705	0.485	0.442	0.829	0.412
Y fixed	0.442	0.713	0.813	0.824	1.26	0.452	0.405	0.827	1.87
pThr fixed	0.373	0.328	0.586	0.443	0.199	0.249	0.375	0.475	0.408
pTyr fixed	0.252	0.29	0.697	0.463	0.315	0.281	0.256	0.414	0.993

CAMK2G, construct: aa24-334 (from UniProt Q13555)
relative phosphorylation
Settings	at +1	at +2	at +3	at +4	at -1	at -2	at -3	at -4	at -5
A fixed	0.737	0.749	0.902	0.943	0.933	0.991	0.897	0.98	1
D fixed	0.862	3.95	1.64	1.87	1.41	1.02	0.898	1.07	1.13
E fixed	0.878	2.06	2.04	1.99	1.26	0.887	0.9	1.04	1.12
F fixed	2.53	0.723	0.818	0.816	0.913	1.25	1.27	0.987	0.991
G fixed	0.709	0.692	0.983	1.02	0.953	1.07	0.829	0.974	0.971
H fixed	0.814	0.784	0.979	0.903	0.897	1.25	1.06	1.14	1.19
I fixed	1.14	0.712	0.879	0.814	0.855	0.775	0.918	0.924	0.855
K fixed	0.824	0.705	0.863	0.785	1.1	0.889	0.945	0.946	1.09
L fixed	1.01	0.675	0.907	0.812	0.965	0.795	0.916	0.894	0.953
M fixed	1.43	0.696	0.855	0.785	0.944	0.841	1.04	0.903	0.871
N fixed	0.813	0.92	0.943	0.91	1.05	1.17	1.04	1.07	1.02
P fixed	0.675	0.64	0.708	0.948	0.78	0.705	0.871	0.896	0.864
Q fixed	0.959	0.773	0.98	0.911	1.07	1	0.982	0.96	0.916
R fixed	0.841	0.72	0.833	0.764	1.11	0.963	1.14	0.906	1
V fixed	1.02	0.729	0.888	0.85	0.912	0.805	0.829	0.883	0.963
W fixed	0.776	0.74	0.877	1.01	0.919	1.41	1.33	1.37	1.13
Y fixed	0.984	0.728	0.907	0.881	0.933	1.18	1.14	1.05	0.938
pThr fixed	1.09	1.16	1.78	2.53	1.25	1	0.985	1.11	1
pTyr fixed	1.23	4.79	1.69	2.15	1.63	1.11	1.11	1.1	1.02

CDK6, construct: Full length (from UniProt Q00534)
relative phosphorylation
Settings	at +1	at +2	at +3	at +4	at -1	at -2	at -3	at -4	at -5
A fixed	0.249	0.659	0.594	0.709	0.827	0.895	1.21	1.02	1.04
D fixed	0.113	0.259	0.209	0.504	0.48	0.316	0.476	0.884	0.866
E fixed	0.11	0.238	0.174	0.424	0.473	0.406	0.66	0.859	0.909
F fixed	0.353	0.811	0.529	0.795	0.908	1.1	0.978	0.852	0.979
G fixed	1.39	0.731	0.681	1.15	1.29	0.73	1.42	1.04	1.23
H fixed	0.295	1.24	1.06	1.23	1.11	1.16	1.2	1.11	1.18
I fixed	0.308	1.04	0.461	0.746	0.493	0.878	0.932	0.757	0.669
K fixed	0.303	1.83	3.16	1.64	1.23	0.788	1.03	1.35	1.57
L fixed	0.344	1.1	0.458	0.785	1.14	1.29	1.08	0.85	0.773
M fixed	0.328	1.01	0.581	0.891	1.28	1.5	1.03	0.867	0.736
N fixed	0.211	0.885	0.747	0.957	0.746	0.783	0.827	1.19	1.04
P fixed	11.6	0.494	0.862	1.01	1.26	2.2	1.15	1.07	1.24
Q fixed	0.258	0.905	0.702	1.03	1.04	0.894	0.865	1.05	0.99
R fixed	0.31	3.29	5	2.44	1.78	0.969	1.33	1.15	1.31
V fixed	0.315	0.956	0.513	0.724	0.64	0.835	0.886	0.673	0.68
W fixed	0.285	0.665	0.58	1.13	1.08	1.06	0.92	1.25	0.721
Y fixed	0.24	0.887	0.688	0.829	1.23	1.19	1.02	1.05	1.06
pThr fixed	0.326	0.502	0.433	0.336	0.25	0.548	0.725	0.882	0.934
pTyr fixed	0.339	0.36	0.486	0.349	0.324	0.798	0.81	1.12	1.34
